# Laboratory results taken from the supplement of paper PMC10567573.
# B1: CAMK2A (parent)
# chain: ILLVGYPPFWDEDQHRLYKQIKAG
# B2: SNAP91 (parent)
# chain: FSTDAFSSPPQGASPVPESSLTAD
# Variants of: B1
# Assay: protein stability index of a GFP-peptide fusion (GPS, HEK-293T) (PSI 1-6); higher = more stable
# Conditions: c terminus: a fixed tail appended
# 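Note: lentivirally expressed fusions sorted by FACS into six bins by GFP to DsRed ratio, PSI derived from sequencing read proportions per bin multiplied by bin number.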
row,Variant,protein stability index
1,ITLVGYPPFWDEDQHRLYKQIKAG,1.86
2,INLVGYPPFWDEDQHRLYKQIKAG,1.52
3,IGLVGYPPFWDEDQHRLYKQIKAG,2.4
4,IYLVGYPPFWDEDQHRLYKQIKAG,2.93
5,IALVGYPPFWDEDQHRLYKQIKAG,1.6
6,IVLVGYPPFWDEDQHRLYKQIKAG,1.67
7,IQLVGYPPFWDEDQHRLYKQIKAG,1.42
8,IILVGYPPFWDEDQHRLYKQIKAG,2.57
9,IDLVGYPPFWDEDQHRLYKQIKAG,2.12
10,IHLVGYPPFWDEDQHRLYKQIKAG,1.72
11,IELVGYPPFWDEDQHRLYKQIKAG,2.04
12,IFLVGYPPFWDEDQHRLYKQIKAG,1.3
13,ISLVGYPPFWDEDQHRLYKQIKAG,1.75
14,IKLVGYPPFWDEDQHRLYKQIKAG,1.63
15,IPLVGYPPFWDEDQHRLYKQIKAG,1.86
16,IMLVGYPPFWDEDQHRLYKQIKAG,3.1
17,ICLVGYPPFWDEDQHRLYKQIKAG,2.11
18,ILLGGYPPFWDEDQHRLYKQIKAG,2.24
19,ILLFGYPPFWDEDQHRLYKQIKAG,2.76

row,Variant,protein stability index
1,ILLEGYPPFWDEDQHRLYKQIKAG,1.53
2,ILLAGYPPFWDEDQHRLYKQIKAG,1.07
3,ILLDGYPPFWDEDQHRLYKQIKAG,2.4
4,ILLCGYPPFWDEDQHRLYKQIKAG,1.64
5,ILWVGYPPFWDEDQHRLYKQIKAG,2.4
6,ILDVGYPPFWDEDQHRLYKQIKAG,2.63
7,ILFVGYPPFWDEDQHRLYKQIKAG,2.68
8,ILAVGYPPFWDEDQHRLYKQIKAG,1.65
9,ILGVGYPPFWDEDQHRLYKQIKAG,1.88
10,ILYVGYPPFWDEDQHRLYKQIKAG,1.74
11,ILEVGYPPFWDEDQHRLYKQIKAG,2.19
12,ILHVGYPPFWDEDQHRLYKQIKAG,2.24
13,ILIVGYPPFWDEDQHRLYKQIKAG,2.58
14,ILKVGYPPFWDEDQHRLYKQIKAG,1.58
15,ILSVGYPPFWDEDQHRLYKQIKAG,2.4
16,ILPVGYPPFWDEDQHRLYKQIKAG,2.58
17,ILQVGYPPFWDEDQHRLYKQIKAG,1.79
18,ILNVGYPPFWDEDQHRLYKQIKAG,2.31
19,ILTVGYPPFWDEDQHRLYKQIKAG,1.97

row,Variant,protein stability index
1,ILMVGYPPFWDEDQHRLYKQIKAG,1.72
2,ILVVGYPPFWDEDQHRLYKQIKAG,2.35
3,LLLVGYPPFWDEDQHRLYKQIKAG,2.05
4,QLLVGYPPFWDEDQHRLYKQIKAG,1.82
5,VLLVGYPPFWDEDQHRLYKQIKAG,2.15
6,DLLVGYPPFWDEDQHRLYKQIKAG,2.1
7,KLLVGYPPFWDEDQHRLYKQIKAG,2.23
8,NLLVGYPPFWDEDQHRLYKQIKAG,2.03
9,FLLVGYPPFWDEDQHRLYKQIKAG,1.72
10,ALLVGYPPFWDEDQHRLYKQIKAG,2.25
11,CLLVGYPPFWDEDQHRLYKQIKAG,2.39
12,MLLVGYPPFWDEDQHRLYKQIKAG,1.8
13,TLLVGYPPFWDEDQHRLYKQIKAG,1.58
14,GLLVGYPPFWDEDQHRLYKQIKAG,2.21
15,ELLVGYPPFWDEDQHRLYKQIKAG,2.96
16,RLLVGYPPFWDEDQHRLYKQIKAG,2.54
17,YLLVGYPPFWDEDQHRLYKQIKAG,1.73
18,SLLVGYPPFWDEDQHRLYKQIKAG,2.33
19,PLLVGYPPFWDEDQHRLYKQIKAG,2.27

# Variants of: B2
# Assay: as above
# Conditions: c terminus: a fixed tail appended
row,Variant,protein stability index
1,FSTDAFSSPPQGASPVPTSSLTAD,2.81
2,FSTDAFSSPPQGASPVPNSSLTAD,2.61
3,FSTDAFSSPPQGASPVPDSSLTAD,3.15
4,FSTDAFSSPPQGASPVPLSSLTAD,2.42
5,FSTDAFSSPPQGASPVPKSSLTAD,2.51
6,FSTDAFSSPPQGASPVPASSLTAD,3.22
7,FSTDAFSSPPQGASPVPRSSLTAD,2.65
8,FSTDAFSSPPQGASPVPMSSLTAD,2.83
9,FSTDAFSSPPQGASPVPGSSLTAD,3.05
10,FSTDAFSSPPQGASPVPPSSLTAD,2.78
11,FSTDAFSSPPQGASPVPYSSLTAD,2.74
12,FSTDAFSSPPQGASPVPISSLTAD,2.63
13,FSTDAFSSPPQGASPVPWSSLTAD,2.26
14,FSTDAFSSPPQGASPVPFSSLTAD,2.45
15,FSTDAFSSPPQGASPVPQSSLTAD,3.12
16,FSTDAFSSPPQGASPVPVSSLTAD,3.05
17,FSTDAFSSPPQGASPVPCSSLTAD,2.43
18,FSTDAFSSPPQGASPVPHSSLTAD,2.69
19,FSTDAFSSPPQGASPVPSSSLTAD,3.19

row,Variant,protein stability index
1,FSTDAFSSPPQGASPVPESSLTKD,3.49
2,FSTDAFSSPPQGASPVPESSLTQD,3.91
3,FSTDAFSSPPQGASPVPESSLTGD,3.09
4,FSTDAFSSPPQGASPVPESSLTLD,3.23
5,FSTDAFSSPPQGASPVPESSLTSD,2.94
6,FSTDAFSSPPQGASPVPESSLTED,3.35
7,FSTDAFSSPPQGASPVPESSLTTD,3.35
8,FSTDAFSSPPQGASPVPESSLTFD,3.01
9,FSTDAFSSPPQGASPVPESSLTCD,2.23
10,FSTDAFSSPPQGASPVPESSLTPD,2.8
11,FSTDAFSSPPQGASPVPESSLTND,3.5
12,FSTDAFSSPPQGASPVPESSLTVD,2.96
13,FSTDAFSSPPQGASPVPESSLTMD,2.97
14,FSTDAFSSPPQGASPVPESSLTID,3.08
15,FSTDAFSSPPQGASPVPESSLTWD,2.65
16,FSTDAFSSPPQGASPVPESSLTHD,2.85
17,FSTDAFSSPPQGASPVPESSLTDD,3.36
18,FSTDAFSSPPQGASPVPESSLTRD,2.96
